Assay results as given in patent US20250320252A1 (Scripps Research, published 2025).
Like-named read-outs stand apart in the source and are kept apart here. Bridge positions count the residues as written; N and C are the ends. Square brackets hold non-standard residues; d marks the D form. Ends that are not written are not given here. C20L5A = not defined here; Nle = CCCC[C@H](N)C(=O)O; L5A = not defined here; K4 = not defined here; K5 = not defined here; Aib = CC(C)(N)C(=O)O

T1: human GIP receptor (human, UniProt P48546 22-466)
T1 sequence (looked up): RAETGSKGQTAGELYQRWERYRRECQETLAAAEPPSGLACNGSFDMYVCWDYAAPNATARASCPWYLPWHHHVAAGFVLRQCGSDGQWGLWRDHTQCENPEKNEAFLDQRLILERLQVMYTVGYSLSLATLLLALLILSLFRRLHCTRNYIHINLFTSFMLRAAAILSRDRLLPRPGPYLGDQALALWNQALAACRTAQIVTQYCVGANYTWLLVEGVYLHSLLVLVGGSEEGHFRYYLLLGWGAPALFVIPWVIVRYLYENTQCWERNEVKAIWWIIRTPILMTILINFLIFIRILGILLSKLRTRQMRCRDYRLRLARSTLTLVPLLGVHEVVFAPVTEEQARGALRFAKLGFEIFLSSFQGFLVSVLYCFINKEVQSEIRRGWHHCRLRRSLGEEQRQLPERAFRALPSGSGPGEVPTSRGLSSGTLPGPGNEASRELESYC


Legend:
Assay in all cases: cell-based or functional assay
human GLP-1 receptor [1] = target: T2, human GLP-1 receptor (human, UniProt P43220 24-463)
human GIP receptor [2] = target: T1, human GIP receptor
human GIP receptor [3] = target: T1, human GIP receptor; remark: listed apart in the source
human GIP receptor [4] = target: T1, human GIP receptor; remark: listed apart in the source
human GLP-1 receptor [5] = target: T2, human GLP-1 receptor; remark: listed apart in the source
human GIP receptor [6] = target: T1, human GIP receptor; remark: listed apart in the source
human GLP-1 receptor [7] = target: T2, human GLP-1 receptor; remark: listed apart in the source
human GLP-1 receptor [8] = target: T2, human GLP-1 receptor; remark: listed apart in the source

Binder | EC50 [nM] of receptor-mediated cAMP synthesis (human GLP-1 receptor [1]) [nM] | EC50 [nM] of receptor-mediated cAMP synthesis (human GIP receptor [2]) [nM] | EC50 of receptor-mediated cAMP synthesis, GIPR (nM), 02/19 (human GIP receptor [3]) [nM] | EC50 of receptor-mediated cAMP synthesis, GIPR (nM), 03/25 (human GIP receptor [3]) [nM] | EC50 of receptor-mediated cAMP synthesis, GIPR (nM), 03/26 (human GIP receptor [3]) [nM] | EC50 of receptor-mediated cAMP synthesis, GIPR (nM), average (human GIP receptor [3]) [nM] | EC50 [nM] of receptor-mediated cAMP synthesis (human GIP receptor [4]) [nM] | EC50 of receptor-mediated cAMP synthesis, GLP1R (nM), 02/19 (human GLP-1 receptor [7]) [nM] | EC50 of receptor-mediated cAMP synthesis, GLP1R (nM), 3/25 (human GLP-1 receptor [7]) [nM] | also measured
H-Y[Aib]EGTFT[dS]DY[dS]IYKDKQAA[Nle]KFVAWLLAGGPSSGAPPPS-NH2 (linker 14-21 via K4; not fully specified; reading uncertain) [ZA-43 - K4] | 1.32 | 11.3 |  |  |  |  |  |  |  | 
Y[Aib]EGTFTSDYSIYCDKQAA[Aib]CFVNWLLAGGPSSGAPPPS-NH2 (linker 14-21 via C20L5A; reading uncertain) [C(14-21)-C20L5A] |  |  | 0.07 | 0.04 | 0.04 | 0.05 | 0.05 |  |  | 
Y[Aib]EGTFTSDYSIYLDKCAA[Aib]EFVCWLLAGGPSSGAPPPS-NH2 (linker 17-24 via C20L5A; not fully specified; reading uncertain) [C(17-24)-C20L5A] |  |  | 0.04 | 0.02 | 0.03 | 0.03 |  | 0.07 | 0.1 | EC50 [nM] of receptor-mediated cAMP synthesis (human GLP-1 receptor [5]): 0.11 nM; EC50 [nM] of receptor-mediated cAMP synthesis (human GIP receptor [6]): 0.05 nM
Y[Aib]EGTFTSDYSIYLDKCAQ[Aib]AFVCWLIAQGPSSGAPPPS-NH2 (linker 17-24 via C20L5A; not fully specified; reading uncertain) [19Q, 21A, 27I, 29Q, C(17-24) - C20L5A] |  |  |  |  |  |  |  |  |  | EC50 [nM] of receptor-mediated cAMP synthesis (human GIP receptor [6]): 0.02 nM
H-Y[Aib]EGTFT[dS]DY[dS]IYKDKQAA[Nle]KFVAWLLAGGPSSGAPPPS-NH2 (linker 14-21 via K5; not fully specified; reading uncertain) [ZA-43 - K5] | 3.74 | 15.7 |  |  |  |  |  |  |  | 
Y[Aib]EGTFTSDYSIYCDKQAA[Aib]CFVNWLIAGGPSSGAPPPS-NH2 (linker 14-21 via L5A; not fully specified; reading uncertain) [27I, C(14-21)-L5A] |  |  |  |  |  |  | 0.03 |  |  | EC50 [nM] of receptor-mediated cAMP synthesis (human GLP-1 receptor [8]): 0.04 nM
H-Y[Aib]EGTFHSDYDIYKDKQAA[Nle]KFVAWLLAGGPSSGAPPPS-NH2 (linker 14-21 via K5; not fully specified; reading uncertain) [ZA-42 - K5] | ~13700 | 303 |  |  |  |  |  |  |  | 
Y[Aib]EGTYTSDYSIYLDKCAA[Aib]EFVCWLIAGGPSSGAPPPS-NH2 (linker 17-24 via C20L5A; not fully specified; reading uncertain) [6Y, 27I, C(17-24)-C20L5A] |  |  | 0.27 | 0.27 | 0.25 | 0.26 |  | 0.05 | 0.07 | EC50 of receptor-mediated cAMP synthesis, GLP1R (nM), 03/26 (human GLP-1 receptor [7]): 0.06 nM; EC50 of receptor-mediated cAMP synthesis, GLP1R (nM), average (human GLP-1 receptor [7]): 0.06 nM
Y[Aib]EGTFTSDYSIYKDKQAA[Aib]KFVNWLLAGGPSSGAPPPS-NH2 (bridge 14-21 via K5; reading uncertain) [mCLZ715] | 0.02 | 0.02 |  |  |  |  |  |  |  | 
H-Y[Aib]EGTFHSDYDIYKDKQAA[Nle]KFVAWLLAGGPSSGAPPPS-NH2 (linker 14-21 via K4; not fully specified; reading uncertain) [ZA-42 - K4] | 18.8 | 20.4 |  |  |  |  |  |  |  | 
Y[Aib]EGTFTSDYSIYCDKQAA[Aib]CFVNWLLAGGPSSGAPPPS-NH2 (linker 14-21 via L5A; not fully specified; reading uncertain) [mCMC759 (C(14-21)-L5A)] |  |  |  |  |  |  | 0.03 |  |  | EC50 [nM] of receptor-mediated cAMP synthesis (human GIP receptor [6]): 0.03 nM
Y[Aib]EGTFTSDYSIYKDKQAA[Aib]KFVNWLLAGGPSSGAPPPS-NH2 (bridge 14-21; not fully specified (bridges); also: K4 staple carries PEG-fatty acid) [mCMD307 (2050-K4)] | 0.01 | 0.02 | 0.04 | 0.01 | 0.01 | 0.02 | 0.01 | 0.01 | 0.01 | EC50 [nM] of receptor-mediated cAMP synthesis (human GLP-1 receptor [5]): 0.03 nM; EC50 [nM] of receptor-mediated cAMP synthesis (human GIP receptor [6]): 0.01 nM; EC50 of receptor-mediated cAMP synthesis, GLP1R (nM), 03/26 (human GLP-1 receptor [7]): 0.01 nM; EC50 of receptor-mediated cAMP synthesis, GLP1R (nM), average (human GLP-1 receptor [7]): 0.01 nM; EC50 [nM] of receptor-mediated cAMP synthesis (human GLP-1 receptor [8]): 0.03 nM
Y[Aib]EGTYTNDYSIYLDKCAA[Aib]EFVCWLIAGGPSSGAPPPS-NH2 (linker 17-24 via C20L5A; not fully specified; reading uncertain) [6Y, 8N, 27I, C(17-24)-C20L5A] |  |  | 2.48 |  | 3.29 | 2.88 |  | 0.06 | 0.11 | EC50 of receptor-mediated cAMP synthesis, GLP1R (nM), 03/26 (human GLP-1 receptor [7]): 0.07 nM; EC50 of receptor-mediated cAMP synthesis, GLP1R (nM), average (human GLP-1 receptor [7]): 0.08 nM
Y[Aib]EGTFTSDYSIYLDKCAA[Aib]EFVCWLLAGGPSSGAPPPS-NH2 (linker 17-24 via L5A; not fully specified; reading uncertain) [C(17-24)-L5A] |  |  |  |  |  |  |  |  |  | EC50 [nM] of receptor-mediated cAMP synthesis (human GLP-1 receptor [5]): 0.11 nM; EC50 [nM] of receptor-mediated cAMP synthesis (human GIP receptor [6]): 0.05 nM
Y[Aib]EGTFISDVSIYCDKQAA[Aib]CFVNWLIAGGPSSGAPPPS-NH2 (linker 14-21 via L5A; not fully specified; reading uncertain) [7I, 10V, 27I, C(14-21) - L5A] |  |  |  |  |  |  | 12.6 |  |  | EC50 [nM] of receptor-mediated cAMP synthesis (human GLP-1 receptor [8]): 83.9 nM
H-Y[Aib]EGTFHSDYDIYKDKQAA[Aib]KFVQWLLAGGPSSGAPPPS-NH2 (bridge 14-21 via K4; reading uncertain) [ZA-41 - K4] | 13.8 | 5.31 |  |  |  |  |  |  |  | 
Y[Aib]EGTFISDVSIYCDKQAA[Aib]CFVNWLIAGGPSSGAPPPS-NH2 (linker 14-21 via C20L5A; not fully specified; reading uncertain) [7I, 10V, 27I, C(14-21) - C20L5A] |  |  |  |  |  |  | 303 |  |  | EC50 [nM] of receptor-mediated cAMP synthesis (human GLP-1 receptor [8]): ~13700 nM
H-Y[Aib]EGTFHSDYDIYKDKQAA[Aib]KFVQWLLAGGPSSGAPPPS-NH2 (bridge 14-21 via K5; reading uncertain) [ZA-41 - K5] | 83.9 | 12.6 |  |  |  |  |  |  |  | 
Y[Aib]EGTFTSDYSIYCDKQAA[Aib]CFVNWLIAGGPSSGAPPPS-NH2 (linker 14-21 via C20L5A; not fully specified; reading uncertain) [mCMV266 (27I, C(14-21)-C20L5A)] |  |  | 0.08 | 0.06 | 0.06 | 0.07 | 0.07 | 0.03 | 0.05 | EC50 of receptor-mediated cAMP synthesis, GLP1R (nM), 03/26 (human GLP-1 receptor [7]): 0.06 nM; EC50 of receptor-mediated cAMP synthesis, GLP1R (nM), average (human GLP-1 receptor [7]): 0.05 nM; EC50 [nM] of receptor-mediated cAMP synthesis (human GLP-1 receptor [8]): 0.05 nM
Y[Aib]EGTYTSDYSIYCDKQAA[Aib]CFVNWLIAGGPSSGAPPPS-NH2 (linker 14-21 via C20L5A; not fully specified; reading uncertain) [6Y, 27I, C(14-21)-C20L5A] |  |  | 0.5 | 0.58 | 0.6 | 0.56 |  | 0.04 | 0.07 | EC50 of receptor-mediated cAMP synthesis, GLP1R (nM), 03/26 (human GLP-1 receptor [7]): 0.07 nM; EC50 of receptor-mediated cAMP synthesis, GLP1R (nM), average (human GLP-1 receptor [7]): 0.06 nM
